These results are taken from paper PMC4359968 (Cancer research, 2015).

The assay concerns the target RAGE-Fc (human RAGE) (human, UniProt Q15109 23-342). Put plainly: ELISA. A general note: ELISA stands for enzyme-linked immunosorbent assay.

RAGE-Fc (human RAGE), sequence (Q15109 23-342): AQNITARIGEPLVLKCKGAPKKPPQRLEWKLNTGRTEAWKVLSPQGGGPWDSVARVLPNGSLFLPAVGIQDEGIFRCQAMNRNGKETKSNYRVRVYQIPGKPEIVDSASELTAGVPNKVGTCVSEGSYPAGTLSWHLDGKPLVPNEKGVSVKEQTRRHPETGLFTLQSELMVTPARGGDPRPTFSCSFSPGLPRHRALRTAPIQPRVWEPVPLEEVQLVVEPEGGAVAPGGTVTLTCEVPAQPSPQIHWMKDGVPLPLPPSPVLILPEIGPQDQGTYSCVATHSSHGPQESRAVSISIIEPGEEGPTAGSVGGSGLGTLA

B1: human recombinant S100A7 (ligand, UniProt P31151 1-101, looked up)
chain: MSNTQAERSIIGMIDMFHKYTRRDDKIEKPSLLTMMKENFPNFLSACDKKGTNYLADVFEKKDKNEDKKIDFSEFLSLLGDIATDYHKQSHGAAPCSGGSQ
As for B1, the binding result is “binds”.
